Columns and labels:
Test in all cases: Kinase Profiling Assay
Assay type in all cases: biochemical
Settings in all cases: for % activity: 100 μM
[1] = biological target: T1, EphA8(h) (Homo sapiens, UniProt P29322)
T1 sequence (P29322 28-1005): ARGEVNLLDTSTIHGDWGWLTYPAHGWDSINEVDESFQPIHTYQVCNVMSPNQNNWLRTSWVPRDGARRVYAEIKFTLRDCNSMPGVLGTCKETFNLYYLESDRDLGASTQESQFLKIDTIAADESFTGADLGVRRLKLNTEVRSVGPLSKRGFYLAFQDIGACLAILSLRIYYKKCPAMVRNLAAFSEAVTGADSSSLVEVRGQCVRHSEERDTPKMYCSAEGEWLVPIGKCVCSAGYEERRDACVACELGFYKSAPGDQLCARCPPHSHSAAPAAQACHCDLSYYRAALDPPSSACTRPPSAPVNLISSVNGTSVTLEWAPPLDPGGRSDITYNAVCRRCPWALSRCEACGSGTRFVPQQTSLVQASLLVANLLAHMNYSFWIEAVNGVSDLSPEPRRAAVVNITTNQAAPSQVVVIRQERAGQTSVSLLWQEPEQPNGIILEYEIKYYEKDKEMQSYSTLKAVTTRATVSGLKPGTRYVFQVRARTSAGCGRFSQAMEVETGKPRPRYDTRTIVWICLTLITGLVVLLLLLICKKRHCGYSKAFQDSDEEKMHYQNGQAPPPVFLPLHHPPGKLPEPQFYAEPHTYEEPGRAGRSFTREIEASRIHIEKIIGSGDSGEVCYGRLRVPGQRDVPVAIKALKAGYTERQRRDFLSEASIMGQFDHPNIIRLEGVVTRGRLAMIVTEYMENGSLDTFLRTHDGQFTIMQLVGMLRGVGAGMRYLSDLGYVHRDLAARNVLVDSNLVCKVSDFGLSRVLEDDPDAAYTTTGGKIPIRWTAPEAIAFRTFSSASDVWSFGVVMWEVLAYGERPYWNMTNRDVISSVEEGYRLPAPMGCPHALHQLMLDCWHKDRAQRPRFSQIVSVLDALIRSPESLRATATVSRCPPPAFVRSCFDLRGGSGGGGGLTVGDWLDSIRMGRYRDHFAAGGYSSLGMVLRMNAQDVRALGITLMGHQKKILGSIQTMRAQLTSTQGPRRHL

[2] = biological target: T2, PKCμ(h) (Homo sapiens, UniProt Q15139)
T2 sequence (Q15139 1-912): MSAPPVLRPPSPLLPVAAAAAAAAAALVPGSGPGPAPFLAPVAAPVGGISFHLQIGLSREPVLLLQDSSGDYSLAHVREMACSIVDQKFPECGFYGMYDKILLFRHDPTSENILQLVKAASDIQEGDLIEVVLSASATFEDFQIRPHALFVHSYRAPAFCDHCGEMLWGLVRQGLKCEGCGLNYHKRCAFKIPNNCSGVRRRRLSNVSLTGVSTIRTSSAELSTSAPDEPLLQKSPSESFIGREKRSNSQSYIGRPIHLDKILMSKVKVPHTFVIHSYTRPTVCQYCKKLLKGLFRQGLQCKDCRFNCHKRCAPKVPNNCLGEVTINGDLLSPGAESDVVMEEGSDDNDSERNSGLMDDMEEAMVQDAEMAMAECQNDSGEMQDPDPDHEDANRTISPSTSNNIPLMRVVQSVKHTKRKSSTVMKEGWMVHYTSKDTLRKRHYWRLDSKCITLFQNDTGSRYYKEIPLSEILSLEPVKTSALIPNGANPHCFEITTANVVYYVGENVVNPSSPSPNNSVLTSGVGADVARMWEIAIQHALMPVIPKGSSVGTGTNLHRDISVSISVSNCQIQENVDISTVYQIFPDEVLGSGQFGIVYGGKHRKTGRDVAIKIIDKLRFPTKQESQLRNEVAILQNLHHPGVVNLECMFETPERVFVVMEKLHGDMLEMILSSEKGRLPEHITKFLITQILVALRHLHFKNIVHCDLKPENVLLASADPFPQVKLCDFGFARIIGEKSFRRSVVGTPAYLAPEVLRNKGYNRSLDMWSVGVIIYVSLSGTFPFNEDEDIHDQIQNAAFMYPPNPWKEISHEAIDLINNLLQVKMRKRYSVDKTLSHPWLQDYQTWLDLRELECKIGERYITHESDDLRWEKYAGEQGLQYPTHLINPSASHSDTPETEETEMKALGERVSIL

[3] = biological target: T3, TAO2(h) (Homo sapiens, UniProt Q9UL54)
T3 sequence (Q9UL54 1-1235): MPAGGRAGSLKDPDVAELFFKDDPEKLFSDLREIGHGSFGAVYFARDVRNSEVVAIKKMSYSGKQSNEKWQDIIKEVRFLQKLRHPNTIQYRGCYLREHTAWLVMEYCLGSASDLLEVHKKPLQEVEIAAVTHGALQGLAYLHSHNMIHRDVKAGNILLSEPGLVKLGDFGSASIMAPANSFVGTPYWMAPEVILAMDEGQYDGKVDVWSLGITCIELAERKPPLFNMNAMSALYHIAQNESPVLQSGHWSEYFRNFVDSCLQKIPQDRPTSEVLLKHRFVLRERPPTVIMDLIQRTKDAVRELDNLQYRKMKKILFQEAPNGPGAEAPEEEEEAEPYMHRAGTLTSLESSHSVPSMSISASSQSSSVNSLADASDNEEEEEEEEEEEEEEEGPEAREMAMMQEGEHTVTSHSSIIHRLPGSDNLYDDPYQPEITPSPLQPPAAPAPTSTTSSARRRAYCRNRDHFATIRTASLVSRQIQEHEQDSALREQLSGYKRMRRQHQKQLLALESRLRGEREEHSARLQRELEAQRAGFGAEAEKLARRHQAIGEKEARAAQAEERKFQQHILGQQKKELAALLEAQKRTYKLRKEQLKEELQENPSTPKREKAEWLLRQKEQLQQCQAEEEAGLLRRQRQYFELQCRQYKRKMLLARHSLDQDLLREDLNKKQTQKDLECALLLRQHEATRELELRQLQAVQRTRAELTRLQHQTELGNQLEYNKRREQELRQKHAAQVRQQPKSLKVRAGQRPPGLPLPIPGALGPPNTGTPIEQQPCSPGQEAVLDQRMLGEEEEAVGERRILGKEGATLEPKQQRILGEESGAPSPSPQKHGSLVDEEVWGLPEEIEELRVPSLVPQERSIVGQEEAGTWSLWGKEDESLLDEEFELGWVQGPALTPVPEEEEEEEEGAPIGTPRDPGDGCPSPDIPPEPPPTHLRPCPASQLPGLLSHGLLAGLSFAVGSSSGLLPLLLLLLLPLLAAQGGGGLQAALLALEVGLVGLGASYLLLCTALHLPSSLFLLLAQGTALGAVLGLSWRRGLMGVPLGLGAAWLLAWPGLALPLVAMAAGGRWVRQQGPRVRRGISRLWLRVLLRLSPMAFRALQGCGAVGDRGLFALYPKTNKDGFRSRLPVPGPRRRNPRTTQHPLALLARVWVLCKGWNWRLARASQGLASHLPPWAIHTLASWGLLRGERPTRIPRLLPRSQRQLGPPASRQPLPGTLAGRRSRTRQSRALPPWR

Substance | % activity [1] | % activity [2] | % activity [3] | activity at 100 µM [1] | activity at 100 µM [2] | activity at 100 µM [3]
YARAAARQARAKALNRQLGVA (Mammalian) [MMI-0200] | 133% | 73% | 93% |  |  | 
H-YARAAARQARAKALARQLGVAA-OH [MMI-0100] |  |  |  | 181% | 79% | 95%
HRRIKAWLKKIKALARQLGVAA (Mammalian) [MMI-0500] | 337% | 10% | 15% |  |  | 
